System: human peripheral blood HSC-derived mast cells
Assay: In vitro human mast cell degranulation assay (beta-hexosaminidase release)
Assay type: cell-based
Details: test agents 0.006-25 nM cross-linked with antibody specific for the Fab portion; absence of SCF
Experimental: Mature mast cells were generated using CD34+ progenitors from mobilized peripheral blood. CD34+ cells were cultured in StemSpan SFEM (StemCell Technologies) supplemented with recombinant human stem cell factor (rhSCF, 50 ng/ml, Gibco), recombinant human interleukin 6 (rhIL-6, 50 ng/ml, Gibco), recombinant human IL-3 (30 ng/ml, Peprotech), GlutaMAX ([…], Gibco), penicillin (100 U/ml, Hyclone) and streptomycin (100 μg/ml, Hyclone). Recombinant hll-3 was added only during the first week of the culture. After the third week, half of the medium was replaced weekly with fresh medium containing rhIL-6 (50 ng/ml) and rhSCF (50 ng/ml). Mature mast cell purity was evaluated by surface staining of high-affinity IgE receptor (FCεRI, eBioscience) and CD117 (BD). […]
The derived mast cells were washed once to remove SCF, and the required amount of cells was incubated overnight in mast cell medium containing rhIL-6 (50 ng/ml) with or without rhSCF (50 ng/ml). […] During this incubation, p-nitro-N-acetyl-pi-D-gluosamine (pNAG, Sigma) buffer was prepared by sonicating 3.5 mg/ml of pNAG in citrate buffer (40 mM citric acid, 20 mM sodium phosphate dibasic, pH 4.5). β-hexosaminidase release was measured by mixing 20 μl of cell supernatant with 40 μl of pNAG solution in a flat-bottom 384-well plate. […] Absorbance was read using a plate reader at λ=405 nm with reference filter at λ=620 nm. […]

B1: anti-cKIT Fab4 (HC-E152C): anti-cKIT Fab fragment with heavy chain E152C (Cys Fab HC SEQ ID NO: 136) (antibody)
heavy: QVQLQQSGPGLVKPSQTLSLTCAISGDSVSTNSAAWNWIRQSPSRGLEWLGRIYYRSQWLNDYAVSVKSRITINPDTSKNQFSLQLNSVTPEDTAVYYCARQLTYPYTVYHKALDVWGQGTLVTVSSASTKGPSVFPLAPSSKSTSGGTAALGCLVKDYFPCPVTVSWNSGALTSGVHTFPAVLQSSGLYSLSSVVTVPSSSLGTQTYICNVNHKPSNTKVDKRVEPKSCD
modifications: light chain not cited
  mast cell degranulation (beta-hexosaminidase release) when cross-linked: no mast cell degranulation was triggered

From patent US20210228731A1, “ANTIBODY DRUG CONJUGATES FOR ABLATING HEMATOPOIETIC STEM CELLS” (NOVARTIS AG, priority 2018, published 2021)
